Experimental data reported in patent US20260042827A1 (published 2026).

Legend:
HLA-DP4 = biological target: T1, HLA-DP4 (human, UniProt P20036 29-222; P04440 30-225); test: competition
T1 chain 1: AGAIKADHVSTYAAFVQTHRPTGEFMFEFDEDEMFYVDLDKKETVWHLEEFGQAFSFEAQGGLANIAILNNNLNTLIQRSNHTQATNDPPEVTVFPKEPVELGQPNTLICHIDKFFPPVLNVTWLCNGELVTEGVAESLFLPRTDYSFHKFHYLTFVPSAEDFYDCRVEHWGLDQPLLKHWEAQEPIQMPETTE
T1 chain 2: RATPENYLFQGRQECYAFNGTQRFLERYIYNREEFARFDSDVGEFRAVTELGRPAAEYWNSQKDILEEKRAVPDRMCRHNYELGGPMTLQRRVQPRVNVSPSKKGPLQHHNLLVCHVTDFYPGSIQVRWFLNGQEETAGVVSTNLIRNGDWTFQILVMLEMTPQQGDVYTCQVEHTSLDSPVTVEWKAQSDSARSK

HLA-DP2 = biological target: T2, HLA-DP2 (human, UniProt P20036 29-222; P04440 30-225); test: competition
T2 chain 1: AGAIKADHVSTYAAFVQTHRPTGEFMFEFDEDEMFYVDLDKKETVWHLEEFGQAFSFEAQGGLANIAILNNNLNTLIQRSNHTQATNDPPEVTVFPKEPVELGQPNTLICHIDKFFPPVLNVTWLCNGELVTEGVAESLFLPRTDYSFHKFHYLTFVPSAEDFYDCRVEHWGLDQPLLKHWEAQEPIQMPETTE
T2 chain 2: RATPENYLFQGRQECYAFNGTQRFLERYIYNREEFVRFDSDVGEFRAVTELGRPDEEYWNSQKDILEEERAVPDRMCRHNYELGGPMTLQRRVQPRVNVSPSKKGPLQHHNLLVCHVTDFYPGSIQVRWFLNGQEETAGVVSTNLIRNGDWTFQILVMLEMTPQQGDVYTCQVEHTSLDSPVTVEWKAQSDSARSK

- IC50 (HLA-DP4): 23.8 µM
- IC50 (HLA-DP2): 8 µM
B1: WT1328-348 (peptide)
peptide: PGCNKRYFKLSHLQMHSRKHT
